Reference: patent US20240409645A1 (DUALYX, published 2024)

T1: human IL-2 receptor (IL-2Rα/IL-2Rβ/γc) (human, UniProt P01589 22-272; P14784 27-551; P31785 23-369)
T1 sequence 1: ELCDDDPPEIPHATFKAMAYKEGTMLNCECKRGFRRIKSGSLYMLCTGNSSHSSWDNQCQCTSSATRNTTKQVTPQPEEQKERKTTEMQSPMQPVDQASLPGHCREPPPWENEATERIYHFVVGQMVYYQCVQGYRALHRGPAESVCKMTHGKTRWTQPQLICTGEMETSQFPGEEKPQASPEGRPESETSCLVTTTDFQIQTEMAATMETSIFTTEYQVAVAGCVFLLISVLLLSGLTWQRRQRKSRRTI
T1 sequence 2: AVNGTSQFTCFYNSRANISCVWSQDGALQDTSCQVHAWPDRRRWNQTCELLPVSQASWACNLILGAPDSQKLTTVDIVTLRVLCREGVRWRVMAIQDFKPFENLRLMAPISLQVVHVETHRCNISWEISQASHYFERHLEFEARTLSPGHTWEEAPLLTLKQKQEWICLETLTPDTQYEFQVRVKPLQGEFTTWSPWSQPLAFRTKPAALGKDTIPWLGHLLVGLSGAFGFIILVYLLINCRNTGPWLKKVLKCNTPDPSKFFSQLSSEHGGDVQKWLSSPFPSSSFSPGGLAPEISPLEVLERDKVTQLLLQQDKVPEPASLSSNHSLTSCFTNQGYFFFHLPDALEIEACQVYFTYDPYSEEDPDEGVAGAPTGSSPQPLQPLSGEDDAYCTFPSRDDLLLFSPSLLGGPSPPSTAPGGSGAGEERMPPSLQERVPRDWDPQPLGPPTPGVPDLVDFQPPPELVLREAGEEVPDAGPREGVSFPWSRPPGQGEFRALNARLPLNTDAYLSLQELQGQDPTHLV
T1 sequence 3: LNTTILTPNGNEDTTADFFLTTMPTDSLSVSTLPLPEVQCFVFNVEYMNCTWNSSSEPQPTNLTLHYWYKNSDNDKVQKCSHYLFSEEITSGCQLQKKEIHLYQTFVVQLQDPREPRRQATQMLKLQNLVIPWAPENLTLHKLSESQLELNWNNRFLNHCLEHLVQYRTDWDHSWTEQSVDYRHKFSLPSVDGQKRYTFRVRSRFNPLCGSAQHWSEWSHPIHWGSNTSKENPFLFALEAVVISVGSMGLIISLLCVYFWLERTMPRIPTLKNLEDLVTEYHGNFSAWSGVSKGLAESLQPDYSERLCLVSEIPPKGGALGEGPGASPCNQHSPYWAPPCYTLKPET

B1: DC00067 (other)
chain 1: EVQLVESGGGLVQTGGSLRLSCAASGGTFSRDAMAWFRQVPGKEREFVALISWSGATTNYADSVKGRFAISRDNGKNTVYLQMNRLKPADTAIYYCAADRRPMGSRSYFEPTEYDDWGQGTQVTVSSGGGGSGGGGSGGGGSQVQLVESGGGLVQPGGSLRLSCATSGFTFRNNFMSWVRQAPGKGLEWVSTISYGGESTTYAESVKGRFTISRDNAKNTLYLQMNNLKPEDTAVYYCAKATSYDSIRSGSRGQGTQVTVSSDKTHTCPPCPAPEAAGGPSVFLFPPKPKDTLMISRTPEVTCVVVDVSHEDPEVKFNWYVDGVEVHNAKTKPREEQYNSTYRVVSVLTVLHQDWLNGKEYKCKVSNKALGAPIEKTISKAKGQPREPQVYTLPPSRDELTKNQVSLTCLVKGFYPSDIAVEWESNGQPENNYKTTPPVLDSDGSFLLYSKLTVDKSRWQQGNVFSCSVMHEALHNHYTQKSLSLSPGK
chain 2: QVQLVESGGGLVQAGGSLTLSCAAPGRTFGTDVVGWFRQAPGKEREFVASISRSGDGIYYDDSVKGRFTISRNNAWNTVNLQMNSLKVEDTAVYYCAAGDGWSTYDYWGQGTQVTVSSGGGGSGGGGSGGGGSEVQLVESGGGLVQTGGSLRLSCAASGGTFSRDAMAWFRQVPGKEREFVALISWSGATTNYADSVKGRFAISRDNGKNTVYLQMNRLKPADTAIYYCAADRRPMGSRSYFEPTEYDDWGQGTQVTVSSGGGGSGGGGSGGGGSQVQLVESGGGLVQPGGSLRLSCATSGFTFRNNFMSWVRQAPGKGLEWVSTISYGGESTTYAESVKGRFTISRDNAKNTLYLQMNNLKPEDTAVYYCAKATSYDSIRSGSRGQGTQVTVSSDKTHTCPPCPAPEAAGGPSVFLFPPKPKDTLMISRTPEVTCVVVDVSHEDPEVKFNWYVDGVEVHNAKTKPREEQYNSTYRVVSVLTVLHQDWLNGKEYKCKVSNKALGAPIEKTISKAKGQPREPQVYTLPPSRDELTKNQVSLTCLVKGFYPSDIAVEWESNGQPENNYKTTPPVLDSDGSFFLYSRLTVDKSRWQQGNVFSCSVMHEALHNHYTQKSLSLSPGK
B2: DC00069 (other)
chain 1: EVQLVESGGGLVQTGGSLRLSCAASGGTFSRDAMAWFRQVPGKEREFVALISWSGATTNYADSVKGRFAISRDNGKNTVYLQMNRLKPADTAIYYCAADRRPMGSRSYFEPTEYDDWGQGTQVTVSSGGGGSGGGGSGGGGSQVQLVESGGGLVQPGGSLRLSCATSGFTFRNNFMSWVRQAPGKGLEWVSTISYGGESTTYAESVKGRFTISRDNAKNTLYLQMNNLKPEDTAVYYCAKATSYDSIRSGSRGQGTQVTVSSDKTHTCPPCPAPEAAGGPSVFLFPPKPKDTLMISRTPEVTCVVVDVSHEDPEVKFNWYVDGVEVHNAKTKPREEQYNSTYRVVSVLTVLHQDWLNGKEYKCKVSNKALGAPIEKTISKAKGQPREPQVYTLPPSRDELTKNQVSLTCLVKGFYPSDIAVEWESNGQPENNYKTTPPVLDSDGSFLLYSKLTVDKSRWQQGNVFSCSVMHEALHNHYTQKSLSLSPGK
chain 2: QVQLVESGGGLVQPGGSLRLSCATSGFTFRNNFMSWVRQAPGKGLEWVSTISYGGESTTYAESVKGRFTISRDNAKNTLYLQMNNLKPEDTAVYYCAKATSYDSIRSGSRGQGTQVTVSSGGGGSGGGGSGGGGSQVQLVESGGGLVQAGGSLTLSCAAPGRTFGTDVVGWFRQAPGKEREFVASISRSGDGIYYDDSVKGRFTISRNNAWNTVNLQMNSLKVEDTAVYYCAAGDGWSTYDYWGQGTQVTVSSGGGGSGGGGSGGGGSDKTHTCPPCPAPEAAGGPSVFLFPPKPKDTLMISRTPEVTCVVVDVSHEDPEVKFNWYVDGVEVHNAKTKPREEQYNSTYRVVSVLTVLHQDWLNGKEYKCKVSNKALGAPIEKTISKAKGQPREPQVYTLPPSRDELTKNQVSLTCLVKGFYPSDIAVEWESNGQPENNYKTTPPVLDSDGSFFLYSRLTVDKSRWQQGNVFSCSVMHEALHNHYTQKSLSLSPGK
B3: DC00070 (other)
chain 1: EVQLVESGGGLVQTGGSLRLSCAASGGTFSRDAMAWFRQVPGKEREFVALISWSGATTNYADSVKGRFAISRDNGKNTVYLQMNRLKPADTAIYYCAADRRPMGSRSYFEPTEYDDWGQGTQVTVSSGGGGSGGGGSGGGGSQVQLVESGGGLVQPGGSLRLSCATSGFTFRNNFMSWVRQAPGKGLEWVSTISYGGESTTYAESVKGRFTISRDNAKNTLYLQMNNLKPEDTAVYYCAKATSYDSIRSGSRGQGTQVTVSSDKTHTCPPCPAPEAAGGPSVFLFPPKPKDTLMISRTPEVTCVVVDVSHEDPEVKFNWYVDGVEVHNAKTKPREEQYNSTYRVVSVLTVLHQDWLNGKEYKCKVSNKALGAPIEKTISKAKGQPREPQVYTLPPSRDELTKNQVSLTCLVKGFYPSDIAVEWESNGQPENNYKTTPPVLDSDGSFLLYSKLTVDKSRWQQGNVFSCSVMHEALHNHYTQKSLSLSPGK
chain 2: QVQLVESGGGLVQAGGSLTLSCAAPGRTFGTDVVGWFRQAPGKEREFVASISRSGDGIYYDDSVKGRFTISRNNAWNTVNLQMNSLKVEDTAVYYCAAGDGWSTYDYWGQGTQVTVSSGGGGSGGGGSGGGGSQVQLVESGGGLVQPGGSLRLSCATSGFTFRNNFMSWVRQAPGKGLEWVSTISYGGESTTYAESVKGRFTISRDNAKNTLYLQMNNLKPEDTAVYYCAKATSYDSIRSGSRGQGTQVTVSSDKTHTCPPCPAPEAAGGPSVFLFPPKPKDTLMISRTPEVTCVVVDVSHEDPEVKFNWYVDGVEVHNAKTKPREEQYNSTYRVVSVLTVLHQDWLNGKEYKCKVSNKALGAPIEKTISKAKGQPREPQVYTLPPSRDELTKNQVSLTCLVKGFYPSDIAVEWESNGQPENNYKTTPPVLDSDGSFFLYSRLTVDKSRWQQGNVFSCSVMHEALHNHYTQKSLSLSPGK
B4: DC00039 (other)
chain 1: QVQLVESGGGLVQPGGSLRLSCATSGFTFRNNFMSWVRQAPGKGLEWVSTISYGGESTTYAESVKGRFTISRDNAKNTLYLQMNNLKPEDTAVYYCAKATSYDSIRSGSRGQGTQVTVSSDKTHTCPPCPAPEAAGGPSVFLFPPKPKDTLMISRTPEVTCVVVDVSHEDPEVKFNWYVDGVEVHNAKTKPREEQYNSTYRVVSVLTVLHQDWLNGKEYKCKVSNKALGAPIEKTISKAKGQPREPQVYTLPPSRDELTKNQVSLTCLVKGFYPSDIAVEWESNGQPENNYKTTPPVLDSDGSFLLYSKLTVDKSRWQQGNVFSCSVMHEALHNHYTQKSLSLSPGK
chain 2: EVQLVESGGGLVQTGGSLRLSCAASGGTFSRDAMAWFRQVPGKEREFVALISWSGATTNYADSVKGRFAISRDNGKNTVYLQMNRLKPADTAIYYCAADRRPMGSRSYFEPTEYDDWGQGTQVTVSSGGGGSGGGGSGGGGSQVQLVESGGGLVQPGGSLRLSCATSGFTFRNNFMSWVRQAPGKGLEWVSTISYGGESTTYAESVKGRFTISRDNAKNTLYLQMNNLKPEDTAVYYCAKATSYDSIRSGSRGQGTQVTVSSGGGGSGGGGSGGGGSQVQLVESGGGLVQAGGSLTLSCAAPGRTFGTDVVGWFRQAPGKEREFVASISRSGDGIYYDDSVKGRFTISRNNAWNTVNLQMNSLKVEDTAVYYCAAGDGWSTYDYWGQGTQVTVSSGGGGSGGGGSGGGGSDKTHTCPPCPAPEAAGGPSVFLFPPKPKDTLMISRTPEVTCVVVDVSHEDPEVKFNWYVDGVEVHNAKTKPREEQYNSTYRVVSVLTVLHQDWLNGKEYKCKVSNKALGAPIEKTISKAKGQPREPQVYTLPPSRDELTKNQVSLTCLVKGFYPSDIAVEWESNGQPENNYKTTPPVLDSDGSFFLYSRLTVDKSRWQQGNVFSCSVMHEALHNHYTQKSLSLSPGK

Target: T1, human IL-2 receptor (IL-2Rα/IL-2Rβ/γc)
Test: cell-based or functional assay

Compared with B1, B2 is higher in “EC50 (nM) pSTAT5, NK, human PBMCs” value: 0.217 nM for the first, 0.234 nM for the second.

Compared with B3, B4 is lower in “EC50 (nM) pSTAT5, NK, human PBMCs” value: 0.0538 nM for the first, 0.0315 nM for the second.

First: B1
Second: B2
The “EC50 (nM) pSTAT5, Treg, human PBMCs” value of the first is lower: less than 0.1 pM for the first, 0.00119 nM for the second.

Compared with B3, B4 is higher in “EC50 (nM) pSTAT5, Treg, human PBMCs” value: 0.497 pM for the first, 0.761 pM for the second.

Going from B1 to B2, the “Fold Max signal (% pSTAT5+) Treg/NK” value rises from 2 fold to 7 fold.

Compared with B3, B4 is higher in “Fold Max signal (% pSTAT5+) Treg/NK” value: 7 fold for the first, 11 fold for the second.

Going from B1 to B2, the “Max signal (% pSTAT5+), NK” value falls from 39 % pSTAT5+ to 12 % pSTAT5+.

Compared with B3, B4 is lower in “Max signal (% pSTAT5+), NK” value: 11 % pSTAT5+ for the first, 4 % pSTAT5+ for the second.

First: B1
Second: B2
The “Max signal (% pSTAT5+), Treg” value of the first is higher: 95 % pSTAT5+ for the first, 87 % pSTAT5+ for the second.

Compared with B3, B4 is lower in “Max signal (% pSTAT5+), Treg” value: 80 % pSTAT5+ for the first, 46 % pSTAT5+ for the second.

Going from B1 to B2, the “fold EC50 NK/Treg” value falls from greater than 2180 fold to 197 fold.

Compared with B3, B4 is lower in “fold EC50 NK/Treg” value: 108 fold for the first, 41 fold for the second.
